In US10808024B2, “Antibodies against immunocomplexes comprising cyanobacterial cyclic peptide hepatotoxins” (priority 2015, dated 2020):
Entries after “also recorded” stand apart in the source; their conditions may differ.

B1: SA51D12: variant-specific anti-IC antibody, MC-LR (antibody, V domains shown)
VH: EVQLLESGGGLVQPGGSLRLSCAASGFTFSSDVMHWVRQAPGKGLEWVSVISGYDGYTRYADSVKGRFTISRDNSKNTLYLQMNSLRAEDTAVYYCARGVPYLYGAYSFDYWGQGTLVTVSS
VL: EIVLTQSPGTLSLSPGERATLSCRASQSVSSSNLAWYQQKPGQAPRLLIYGASSRATGVPDRFSGSGSGTDFTLTISRLEPEDFAVYYCQQSSTPWTFGQGTKVEIKRT
modifications: Clone SA51D12; DOMAIN (31)..(35) CDR1; DOMAIN (50)..(66) CDR2; DOMAIN (99)..(111) CDR3; DOMAIN (24)..(35) CDR1; DOMAIN (51)..(57) CDR2; DOMAIN (90)..(98) CDR3
B2: SA55D1: MC-LZ subgroup-specific anti-IC binder (antibody, V domains shown)
VH: EVQLLESGGGLVQPGGSLRLSCAASGFTFSSDVMHWVRQAPGKGLEWVSVISPYDGYTRYADSVKGRFTISRDNSKNTLYLQMNSLRAEDTAVYYCARHKGGYRRAYMDYWGQGTLVTVSS
VL: EIVLTQSPGTLSLSPGERATLSCRASQSVSSSALAWYQQKPGQAPRLLIYGASSRATGVPDRFSGSGSGTDFTLTISRLEPEDFAVYYCQQSYSYPWTFGQGTKVEIKRT
modifications: Clone SA55D1; DOMAIN (31)..(35) CDR1; DOMAIN (50)..(66) CDR2; DOMAIN (99)..(110) CDR3; DOMAIN (24)..(35) CDR1; DOMAIN (51)..(57) CDR2; DOMAIN (90)..(98) CDR3
B3: SA41F2: XR subgroup-specific anti-IC antibody (antibody, V domains shown)
VH: EVQLLESGGGLVQPGGSLRLSCAASGFTFSNYGMHWVRQAPGKGLEWVSEIDYVDGNTYYADSVKGRFTISRDNSKNTLYLQMNSLRAEDTAVYYCAREVYAHGIAAFDYWGQGTLVTVSS
VL: EIVLTQSPGTLSLSPGERATLSCRASQSVSSSALAWYQQKPGQAPRLLIYGASSRATGVPDRFSGSGSGTDFTLTISRLEPEDFAVYYCQQYSSTPWTFGQGTKVEIKRT
modifications: Clone SA41F2; DOMAIN (31)..(35) CDR1; DOMAIN (50)..(66) CDR2; DOMAIN (99)..(110) CDR3; DOMAIN (24)..(35) CDR1; DOMAIN (51)..(57) CDR2; DOMAIN (90)..(98) CDR3
B4: SA44E11: anti-IC antibody recognizing immunocomplexes comprising MC-RR (antibody, V domains shown)
VH: EVQLLESGGGLVQPGGSLRLSCAASGFTFSDYYMHWVRQAPGKGLEWVSEISTYNGYTDYADSVKGRFTISRDNSKNTLYLQMNSLRAEDTAVYYCARGGEPGDDWGQGTLVTVSS
VL: EIVLTQSPGTLSLSPGERATLSCRASQSVSSSALAWYQQKPGQAPRLLIYGASSRATGVPDRFSGSGSGTDFTLTISRLEPEDFAVYYCQQYSSLPWTFGQGTKVEIKRT
modifications: Clone SA44E11; DOMAIN (31)..(35) CDR1; DOMAIN (50)..(66) CDR2; DOMAIN (99)..(105) CDR3; DOMAIN (24)..(35) CDR1; DOMAIN (51)..(57) CDR2; DOMAIN (90)..(98) CDR3
B5: SA32F1: variant-specific anti-IC antibody, Nod-R (antibody, V domains shown)
VH: EVQLLESGGGLVQPGGSLRLSCAASGFTFSNYYMHWVRQAPGKGFEWVSSIITNGGETDYADSVKGRFTISRDNSKNTLYLQMNSLRAEDTAVYYCARLPVTRPYYAVFDYWGQGTLVTVSS
VL: EIVLTQSPGTLSLSPGERATLSCRASQSVSSSALAWYQQKPGQAPRLLIYGASSRATGVPDRFSGSGSGTDFTLTISRLEPEDFAVYYCQQSSSYPWTFGQGTKVEIKRT
modifications: Clone SA32F1; DOMAIN (31)..(35) CDR1; DOMAIN (50)..(66) CDR2; DOMAIN (99)..(110) CDR3; DOMAIN (24)..(35) CDR1; DOMAIN (51)..(57) CDR2; DOMAIN (90)..(98) CDR3
B6: SA52B4: XR subgroup-specific anti-IC antibody (antibody, V domains shown)
VH: EVQLLESGGGLVQPGGSLRLSCAASGFTFSDYSMHWVRQAPGKGLEWVSEIWTNTGYTNYADSVKGRFTISRDNSKNTLYLQMNSLRAEDTAVYYCARESWEWFSIVFDYWGQGTLVTVSS
VL: EIVLTQSPGTLSLSPGERATLSCRASQSVSSSALAWYQQKPGQAPRLLIYGASSRATGVPDRFSGSGSGTDFTLTISRLEPEDFAVYYCQQYSSTPWTFGQGTKVEIKRT
modifications: Clone SA52B4; DISULFID (31)..(35) CDR1; DISULFID (50)..(66) CDR2; DISULFID (99)..(110) CDR3; DOMAIN (24)..(35) CDR1; DOMAIN (51)..(57) CDR2; DOMAIN (90)..(98) CDR3
B7: SA33D5: XR subgroup-specific anti-IC antibody (antibody, V domains shown)
VH: EVQLLESGGGLVQPGGSLRLSCAASGFTFSSDVMHWVRQAPGKGLEWVSEIDPNDGSTRYADSVKGRFTISRDNSKNTLYLQMNSLRAEDTAVYYCAREYGAVSWSVVVFDYWGQGTLVTVSS
VL: EIVLTQSPGTLSLSPGERATLSCRASQSVSSSNLAWYQQKPGQAPRLLIYGASSRATGVPDRFSGSGSGTDFTLTISRLEPEDFAVYYCQQSSSYPWTFGQGTKVEIKRT
modifications: Clone SA33D5; DOMAIN (31)..(35) CDR1; DOMAIN (50)..(66) CDR2; DOMAIN (99)..(112) CDR3; DOMAIN (24)..(35) CDR1; DOMAIN (51)..(57) CDR2; DOMAIN (90)..(98) CDR3
B8: SA59G2: variant-specific anti-IC antibody, MC-LR (antibody, V domains shown)
VH: EVQLLESGGGLVQPGGSLRLSCAASGFTFSNYYMHWVRQAPGKGLEWVSYIDPVGGETYYADSVKGRFTISRDNSKNTLYLQMNSLRAEDTAVYYCARYYYWGYRAFDYWGQGTLVTVSS
VL: EIVLTQSPGTLSLSPGERATLSCRASQSVSSSALAWYQQKPGQAPRLLIYGASSRATGVPDRFSGSGSGTDFTLTISRLEPEDFAVYYCQQSSSLPWTFGQGTKVEIKRT
modifications: Clone SA59G2; DOMAIN (31)..(35) CDR1; DOMAIN (51)..(66) CDR2; DOMAIN (99)..(109) CDR3; DOMAIN (24)..(35) CDR1; DOMAIN (51)..(57) CDR2; DOMAIN (90)..(98) CDR3
B9: SA34G1: variant-specific anti-IC antibody, Nod-R (antibody, V domains shown)
VH: EVQLLESGGGLVQPGGSLRLSCAASGFTFSDYWMHWVRQAPGKGLEWVSEIIPYSGYTNYADSVKGRFTISRDNSKNTLYLQMNSLRAEDTAVYYCARETWGYPSFDYWGQGTLVTVSS
VL: EIVLTQSPGTLSLSPGERATLSCRASQSVSSSNLAWYQQKPGQAPRLLIYGASSRATGVPDRFSGSGSGTDFTLTISRLEPEDFAVYYCQQSSSTPWTFGQGTKVEIKRT
modifications: Clone SA34G1; DOMAIN (31)..(35) CDR1; DOMAIN (50)..(66) CDR2; DOMAIN (99)..(108) CDR3; DOMAIN (24)..(35) CDR1; DOMAIN (51)..(57) CDR2; DOMAIN (90)..(98) CDR3
B10: SA57D4: subgroup-specific anti-IC antibody (antibody, V domains shown)
VH: EVQLLESGGGLVQPGGSLRLSCAASGFTFSGYGMHWVRQAPGKGLEWVSAISDLNGSTYYADSVKGRFTISRDNSKNTLYLQMNSLRAEDTAVYYCARNGWGDMDLWGQGTLVTVSS
VL: EIVLTQSPGTLSLSPGERATLSCRASQSVSSSALAWYQQKPGQAPRLLIYGASSRATGVPDRFSGSGSGTDFTLTISRLEPEDFAVYYCQQSYSLPWTFGQGTKVEIKRT
modifications: Clone SA57D4; DOMAIN (31)..(35) CDR1; DOMAIN (50)..(66) CDR2; DOMAIN (99)..(106) CDR3; DOMAIN (24)..(35) CDR1; DOMAIN (51)..(57) CDR2; DOMAIN (90)..(98) CDR3
B11: SA56E7: variant-specific anti-IC antibody, MC-LR (antibody, V domains shown)
VH: EVQLLESGGGLVQPGGSLRLSCAASGFTFSRYYMHWVRQAPGKGLEWVSYIWPVDGETDYADSVKGRFTISRDNSKNTLYLQMNSLRAEDTAVYYCARYVYGNSVGRVFDYWGQGTLVTVSS
VL: EIVLTQSPGTLSLSPGERATLSCRASQSVSSSNLAWYQQKPGQAPRLLIYGASSRATGVPDRFSGSGSGTDFTLTISRLEPEDFAVYYCQQSYSYPWTFGQGTKVEIKRT
modifications: Clone SA56E7; DOMAIN (31)..(35) CDR1; DOMAIN (50)..(66) CDR2; DOMAIN (99)..(111) CDR3; DOMAIN (24)..(35) CDR1; DOMAIN (51)..(57) CDR2; DOMAIN (90)..(98) CDR3

Legend:
[1] = tested on: immunocomplexes of CCPH variants and anti-Adda mAb; test: Screening and cross-reactivity studies of anti-IC scFv-AP binders, specificity class; type: binding
[2] = tested on: immunocomplexes of MC-XZ and Nod-R with anti-Adda mAb; test: Cross-reactivity profile of anti-IC binders by single-step non-competitive assay (FIG. 5); type: binding; settings: toxin 0.1 to 60 μg/L

| Molecule | Specificity of anti-IC antibody (CCPH immunocomplexes recognized) [1] | Specificity (cross-reactive pattern) [2] |
| --- | --- | --- |
| B1 | recognize immunocomplexes comprising MC-LR; also recorded: MC-LR and MC-LZ specific | – |
| B2 | MC-LZ subgroup-specific | specific towards MC-XZ, where X=L (Leu) |
| B3 | specific for a subgroup XR | – |
| B4 | recognize immunocomplexes comprising MC-RR | – |
| B5 | recognize immunocomplexes comprising Nod-R | – |
| B6 | specific for a subgroup XR | – |
| B7 | specific for a subgroup XR | – |
| B8 | recognize immunocomplexes comprising MC-LR | – |
| B9 | recognize immunocomplexes comprising Nod-R | – |
| B10 | subgroup-specific | – |
| B11 | recognize immunocomplexes comprising MC-LR | – |
